Measured values taken from the Immune Epitope Database (IEDB).

Tests used:
[1] = biological target: HLA-A*24:02; test: IEDB peptide-MHC binding, purified MHC/competitive/fluorescence; ≥ and ≤ were set here for values at or beyond the usual limits of such assays
[2] = biological target: HLA-A*02:01; test: as above
[3] = biological target: HLA-A*32:01; test: IEDB peptide-MHC binding, purified MHC/competitive/radioactivity; filed as Kd, often an IC50 or EC50 that approximates it; ≥ and ≤ were set here for values at or beyond the usual limits of such assays
[4] = biological target: HLA-B*15:01; test: IEDB peptide-MHC binding, purified MHC/competitive/fluorescence; filed as Kd, often an IC50 or EC50 that approximates it; ≥ and ≤ were set here for values at or beyond the usual limits of such assays
[5] = biological target: HLA-B*07:02; test: IEDB peptide-MHC binding, purified MHC/competitive/radioactivity; filed as Kd, often an IC50 or EC50 that approximates it; ≥ and ≤ were set here for values at or beyond the usual limits of such assays
[6] = biological target: HLA-B*15:01; test: as above
[7] = biological target: HLA-A*30:02; test: as above
[8] = biological target: HLA-A*29:02; test: as above
[9] = biological target: HLA-A*01:01; test: as above
[10] = biological target: HLA-A*26:01; test: as above
[11] = biological target: HLA-A*30:01; test: as above
[12] = biological target: HLA-A*23:01; test: as above
[13] = biological target: HLA-A*24:02; test: as above
[14] = biological target: HLA-B*53:01; test: as above; details: source organism: Dengue virus 1 Brazil/97-11/1997
[15] = biological target: HLA-B*51:01; test: as above
[16] = biological target: HLA-B*35:01; test: as above
[17] = biological target: HLA-A*68:01; test: as above; details: source organism: Dengue virus 1 Brazil/97-11/1997
[18] = biological target: HLA-A*11:01; test: IEDB peptide-MHC binding, purified MHC/competitive/fluorescence; ≥ and ≤ were set here for values at or beyond the usual limits of such assays; details: source organism: Zaire ebolavirus
[19] = biological target: HLA-B*15:01; test: IEDB peptide-MHC binding, purified MHC/direct/fluorescence; filed as Kd, often an IC50 or EC50 that approximates it; ≥ and ≤ were set here for values at or beyond the usual limits of such assays; details: source organism: Pseudomonas aeruginosa
[20] = biological target: HLA-A*11:01; test: as above; details: source organism: Pseudomonas aeruginosa
[21] = biological target: HLA-A*69:01; test: as above; details: source organism: Pseudomonas aeruginosa
[22] = biological target: HLA-B*40:01; test: as above; details: source organism: Pseudomonas aeruginosa
[23] = biological target: HLA-A*01:01; test: as above; details: source organism: Pseudomonas aeruginosa
[24] = biological target: HLA-A*31:01; test: as above; details: source organism: Pseudomonas aeruginosa
[25] = biological target: HLA-A*02:01; test: as above; details: source organism: Pseudomonas aeruginosa
[26] = biological target: HLA-B*07:02; test: as above; details: source organism: Pseudomonas aeruginosa
[27] = biological target: HLA-B*58:01; test: as above; details: source organism: Pseudomonas aeruginosa
[28] = biological target: HLA-B*08:01; test: as above; details: source organism: Pseudomonas aeruginosa
[29] = biological target: HLA-B*27:05; test: as above; details: source organism: Pseudomonas aeruginosa
[30] = biological target: HLA-A*26:01; test: as above; details: source organism: Pseudomonas aeruginosa
[31] = biological target: HLA-A*03:01; test: as above; details: source organism: Pseudomonas aeruginosa
[32] = source organism: Sudan ebolavirus
[33] = source organism: Vaccinia virus WR
[34] = source organism: Dengue virus 3 Martinique/1243/1999
[35] = source organism: Dengue virus 2 Jamaica/1409/1983
[36] = source organism: Zaire ebolavirus
[37] = source organism: Mammarenavirus brazilense
[38] = source organism: Vaccinia virus
[39] = source organism: Mammarenavirus oliverosense
[40] = source organism: Dengue virus 1 Brazil/97-11/1997
[41] = source organism: Bacillus cereus G9241
[42] = source organism: Lymphocytic choriomeningitis virus (strain Armstrong)
[43] = source organism: Mammarenavirus lassaense
[44] = source organism: Dengue virus 4 Philippines/H241/1956
[45] = source organism: Mammarenavirus juninense
[46] = source organism: SARS coronavirus Tor2

Sequence: YLEYEIENF
- IC50 [1, 32]: 17300 nM
- IC50 [2, 32]: 42600 nM

Sequence: ITLHLACGF
- Kd [3, 33]: 1.41 nM

Sequence: GIFGAIAGF
- Kd ([4]; source organism: Influenza A virus (A/equine/NewMarket/D64/79(H3N8))): 288 nM

Sequence: TPSMTMRCVG
- Kd [5, 34]: 48 nM

Sequence: LFRFFECTF
- Kd [6, 33]: 3030 nM

Sequence: SPSKLASAIQ
- Kd [5, 35]: 436 nM

Sequence: LVVGEKACL
- IC50 [1, 36]: ≥ 139000 nM
- IC50 [2, 36]: ≥ 115000 nM

Sequence: LQHILIEYM
- Kd [6, 33]: 1220 nM

Sequence: VISDLFPSF
- Kd [6, 33]: 210 nM

Sequence: RIFFGKTSI
- Kd [3, 33]: 1.32 nM

Sequence: SLTEEFYHSY
- Kd [7, 37]: 225 nM
- Kd [8, 37]: 1440 nM
- Kd [3, 37]: ≥ 26100 nM
- Kd [9, 37]: 129 nM
- Kd [10, 37]: 3410 nM
- Kd [11, 37]: ≥ 58500 nM

Sequence: EQAFYTRVL
- IC50 [1, 33]: 58800 nM

Sequence: LYPNVCIFG
- IC50 [1, 38]: 71.6 nM

Sequence: LMILLTGGAM
- Kd [6, 34]: 2.91 nM

Sequence: IGKALHQVF
- Kd [6, 35]: 374 nM

Sequence: VTAETQNSSF
- Kd [6, 34]: 25.9 nM
- Kd [9, 34]: 16200 nM
- Kd [10, 34]: ≥ 20400 nM

Sequence: EWAMEKSSK
- IC50 [1, 38]: ≥ 382000 nM

Sequence: FLFQLNDTI
- IC50 [1, 32]: 879 nM
- IC50 [2, 32]: 257 nM

Sequence: ICLSGEGWPY
- Kd [12, 39]: ≥ 56800 nM
- Kd [3, 37]: ≥ 21200 nM
- Kd [13, 39]: ≥ 70300 nM
- Kd [11, 37]: 4290 nM

Sequence: GVVAFLILP
- IC50 [1, 36]: ≥ 194000 nM
- IC50 [2, 36]: 53900 nM

Sequence: RISRFANLI
- Kd [3, 33]: 6.23 nM

Sequence: SPSPTVEESR
- Kd [5, 34]: 3710 nM

Sequence: AINFKIFNI
- Kd [3, 33]: 22.1 nM

Sequence: FPLCLSTTSQ
- Kd [14]: 36.3 nM
- Kd [15, 40]: ≥ 39600 nM
- Kd [5, 40]: 179 nM
- Kd [16, 40]: 514 nM

Sequence: FSRENSLSGV
- Kd [15, 40]: 7580 nM

Sequence: IVINPFVKF
- Kd [3, 33]: 3260 nM

Sequence: LILCVTQVLM
- Kd [16, 35]: 14200 nM

Sequence: EVMRSRWSRK
- Kd [3, 40]: ≥ 50100 nM
- Kd [17]: 8.94 nM

Sequence: RMNAVSTIL
- Kd [4, 41]: 82.7 nM

Sequence: FHKEGAFFL
- IC50 [1, 36]: 719 nM
- IC50 [2, 36]: ≥ 97800 nM

Sequence: LALGCYSQV
- Kd [15, 40]: 567 nM

Sequence: DYGLVSKFM
- IC50 [1, 33]: 559 nM

Sequence: KNSQKGQHI
- IC50 [1, 36]: ≥ 615000 nM

Sequence: LPVWLAYKVA
- Kd ([16]; source organism: Dengue virus 2 Peru/IQT2913/1996): 5090 nM

Sequence: EGAAIGLAW
- IC50 [1, 36]: 2320 nM

Sequence: STAPSSPPPY
- Kd [7, 42]: 1520 nM
- Kd [8, 42]: 2690 nM
- Kd [3, 42]: 9400 nM
- Kd [9, 42]: 34 nM
- Kd [10, 42]: 8260 nM
- Kd [11, 42]: 344 nM

Sequence: GLNISGYNY
- Kd [7, 37]: 95.7 nM
- Kd [8, 37]: 16.8 nM
- Kd [3, 37]: 16500 nM
- Kd [9, 37]: 13400 nM
- Kd [10, 37]: ≥ 67900 nM
- Kd [11, 37]: ≥ 39200 nM

Sequence: IGIEILNTI
- IC50 [1, 33]: 131 nM
- IC50 [2, 33]: 701 nM

Sequence: AAHSARPPPY
- Kd [7, 43]: 4570 nM
- Kd [8, 43]: 272 nM
- Kd [3, 43]: 2410 nM
- Kd [9, 43]: 18800 nM
- Kd [10, 43]: 2280 nM
- Kd [11, 43]: 114 nM

Sequence: VQKEGVFHTM
- Kd [6, 34]: 24.2 nM

Sequence: LIILSAVAI
- Kd [3, 33]: 125 nM

Sequence: EESASSGKL
- IC50 [18]: ≥ 214000 nM

Sequence: KPEGKVIDL
- Kd [5, 40]: 496 nM

Sequence: LPDTIETLML
- Kd [14]: 297 nM
- Kd [15, 40]: 19300 nM
- Kd [16, 40]: 578 nM

Sequence: NLSGVNNLE
- IC50 [1, 36]: ≥ 86400 nM
- IC50 [2, 36]: ≥ 227000 nM

Sequence: AQKRAAAGIM
- Kd [6, 35]: 68.7 nM

Sequence: RYQATGFGT
- IC50 [1, 36]: ≥ 99300 nM
- IC50 [2, 36]: ≥ 226000 nM

Sequence: MGLDKGWPI
- Kd [15, 40]: ≥ 44700 nM

Sequence: IEVKYSPMY
- Kd [4, 41]: 221 nM

Sequence: DFFSSHPLR
- IC50 [1, 36]: ≥ 124000 nM

Sequence: KTIARFTYF
- Kd [6, 33]: 0.195 nM
- Kd [3, 33]: 95.2 nM

Sequence: IQPFLALGF
- Kd [6, 34]: 16.5 nM

Sequence: SNTTGRLIW
- IC50 [1, 32]: 3610 nM

Sequence: KTKLTDWDFV
- Kd [3, 44]: 15600 nM

Sequence: KFPYEGGKV
- IC50 [1, 38]: ≥ 130000 nM
- IC50 [2, 38]: ≥ 96100 nM

Sequence: TPTWNRKELL
- Kd [5, 34]: 18.2 nM

Sequence: WLPMTVAAM
- Kd ([6]; source organism: Dengue virus 3 Sri Lanka/1266/2000): 177 nM

Sequence: RLRGEQRKTF
- Kd [6, 44]: 24.4 nM

Sequence: IALDLVTEI
- Kd [15, 34]: 1.52 nM

Sequence: AGVLARWGTF
- Kd [3, 34]: 8420 nM

Sequence: NSIEYILSF
- Kd [6, 33]: 2260 nM

Sequence: KTGEKSRCY
- Kd [7, 45]: 2190 nM
- Kd [8, 45]: ≥ 78900 nM
- Kd [3, 45]: 116 nM
- Kd [9, 45]: ≥ 22500 nM
- Kd [10, 45]: ≥ 77900 nM
- Kd [11, 45]: 2480 nM

Sequence: KGCKLTETM
- Kd [6, 33]: 1250 nM

Sequence: GEDDDMLPW
- Kd [19]: ≥ 20000 nM
- Kd [20]: ≥ 20000 nM
- Kd [21]: ≥ 20000 nM
- Kd [22]: 2590 nM
- Kd [23]: ≥ 20000 nM
- Kd [24]: ≥ 20000 nM
- Kd [25]: ≥ 20000 nM
- Kd [26]: ≥ 20000 nM
- Kd [27]: ≥ 20000 nM
- Kd [28]: ≥ 20000 nM
- Kd [29]: ≥ 20000 nM
- Kd [30]: ≥ 20000 nM
- Kd [31]: ≥ 20000 nM

Sequence: NMRDLIVTF
- Kd [6, 33]: 8.26 nM

Sequence: FLHNYILYA
- Kd [6, 33]: 1560 nM

Sequence: EMCDDTVTY
- Kd [6, 34]: 99 nM
- Kd [7, 34]: ≥ 76900 nM
- Kd [10, 34]: 11200 nM

Sequence: FIDTIKSLDY
- Kd [12, 46]: ≥ 70000 nM
- Kd [7, 46]: 4390 nM
- Kd [8, 46]: 506 nM
- Kd [9, 46]: 458 nM
- Kd [13, 46]: ≥ 70300 nM
- Kd [10, 46]: ≥ 24900 nM

Sequence: TPRSMPGTRR
- Kd [5, 34]: 1140 nM

Sequence: KVIQLSRKTF
- Kd [6, 35]: 49.5 nM

Sequence: LYKLMGHFSW
- Kd [12, 46]: 89.6 nM
- Kd [7, 46]: 17100 nM
- Kd [8, 46]: 8090 nM
- Kd [9, 46]: 18400 nM
- Kd [13, 46]: 83.1 nM
- Kd [10, 46]: ≥ 20000 nM

Sequence: KIKHKGMSF
- Kd [6, 33]: 47.2 nM

Sequence: CSANNSHHY
- Kd [7, 42]: 10.6 nM
- Kd [8, 42]: 522 nM
- Kd [3, 42]: ≥ 49800 nM
- Kd [9, 42]: 10.2 nM
- Kd [10, 42]: 8050 nM
- Kd [11, 42]: ≥ 43700 nM
